Source: publication PMC5500810 (2017)

Key:
[1] = biological target: T1, EphA4 ligand-binding domain (human, amino acids 22-203) (human, UniProt P54764 22-203, biotin on primary amines (EZ link NHS biotin) in the AlphaScreen assays only); test: SPR; kd1
[2] = biological target: T2, human EphA4-Fc (R&D Systems) (human, UniProt P54764 20-547); test: SPR
[3] = biological target: T3, mouse EphA4-Fc (R&D Systems) (mouse, UniProt Q03137 20-547); test: SPR
[4] = biological target: T1, EphA4 ligand-binding domain (human, …); test: SPR
[5] = biological target: T2, human EphA4-Fc (R&D Systems); test: SPR; remark: listed apart in the source
[6] = biological target: T3, mouse EphA4-Fc (R&D Systems); test: SPR; remark: listed apart in the source
[7] = biological target: T1, EphA4 ligand-binding domain (human, …); test: SPR; kd2
[8] = biological target: T2, human EphA4-Fc (R&D Systems); test: SPR; kd1
[9] = biological target: T2, human EphA4-Fc (R&D Systems); test: SPR; kd2
[10] = biological target: T3, mouse EphA4-Fc (R&D Systems); test: SPR; kd1
[11] = biological target: T3, mouse EphA4-Fc (R&D Systems); test: SPR; kd2

T3 sequence (Q03137 20-547): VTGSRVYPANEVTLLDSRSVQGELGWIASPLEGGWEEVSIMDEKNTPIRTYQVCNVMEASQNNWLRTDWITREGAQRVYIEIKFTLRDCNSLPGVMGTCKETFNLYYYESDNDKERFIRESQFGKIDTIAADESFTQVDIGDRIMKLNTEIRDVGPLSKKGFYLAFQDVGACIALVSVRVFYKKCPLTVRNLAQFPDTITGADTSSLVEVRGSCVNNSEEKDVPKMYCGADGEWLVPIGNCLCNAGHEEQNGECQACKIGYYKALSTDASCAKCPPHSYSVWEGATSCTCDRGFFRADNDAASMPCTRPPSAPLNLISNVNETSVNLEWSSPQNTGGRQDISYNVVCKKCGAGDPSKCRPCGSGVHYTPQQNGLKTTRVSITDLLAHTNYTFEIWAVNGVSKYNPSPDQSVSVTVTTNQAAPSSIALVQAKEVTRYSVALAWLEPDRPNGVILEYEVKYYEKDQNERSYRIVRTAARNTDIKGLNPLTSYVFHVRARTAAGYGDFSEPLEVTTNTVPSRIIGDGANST
T1 sequence (P54764 22-203): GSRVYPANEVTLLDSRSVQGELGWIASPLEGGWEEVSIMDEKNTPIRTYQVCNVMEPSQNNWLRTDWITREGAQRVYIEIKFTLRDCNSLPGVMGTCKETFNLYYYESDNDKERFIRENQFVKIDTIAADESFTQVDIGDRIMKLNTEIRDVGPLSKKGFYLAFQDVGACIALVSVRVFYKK
T2 sequence (P54764 20-547): as the sequence (Q03137 20-547) above, with A59P, S121N, G124V, Q250R, N251S, S270T, R378K, S406N counted along it

Binder | koff [1] [s⁻¹] | Kd [2] [nM] | Kd [3] [nM] | Kd [4] [nM] | koff [5] [s⁻¹] | koff [6] [s⁻¹] | koff [7] [s⁻¹] | koff [8] [s⁻¹] | koff [9] [s⁻¹] | koff [10] [s⁻¹] | koff [11] [s⁻¹]
Nb 19 (VHH) VHH: QVQLQESGGGLVQPGGSLRLSCAATGRNFNAYSIAWFRQAPGKEREFVASINWSGSNTYYAVAVKGRFTTSRDNAKNTVYLQMNSLKPEDTAVYYCNAFAAGWGPDYWGQGTQVTVSS | 0.108 | 852 | 1140 | 507 | 0.091 | 0.135 | 0.0289 | – | – | – | –
Nb 50 (VHH, biotin on primary amines (EZ link NHS biotin) in the Eph receptor selectivity AlphaScreen only) VHH: QVQLQESGGGLVQAGGSLRLSCAASGRTFNSYAEAWFRQAPGKEREMIAAVTKAGTTNYANPVKGRFTISRDDAKNMVYLQMNNLKPEDSAVYYCNAISPLWDEYDFWGPGTQVTVSS | 0.192 | 64.2 | 104 | 87.3 | – | 0.114 | 0.00062 | 0.168 | 0.0022 | – | –
Nb 31 (VHH, biotin on primary amines (EZ link NHS biotin) in the Eph receptor selectivity AlphaScreen only) VHH: QVQLQESGGGLVQAGGSLRLSCAASGFASDAYAIGWFRQAPGTKREMIAAVTKAGATNYANPVKGRFTISRDDAKNMVYLQMNNLKPEDSAVYYCNAISPLWDEYDFWGPGTQVTVSS | 0.155 | 175 | 258 | 293 | – | – | 0.00676 | 0.2 | 0.0105 | 0.151 | 0.0115
Nb 53 (VHH, biotin on primary amines (EZ link NHS biotin) in the Eph receptor selectivity AlphaScreen only) VHH: QVQLQESGGGVVQAGGSLRLSCAASGRAFSSYAMGWFRQAPGTKREMIAAVTRAGTTNYANPVKGRFTISRDDAKNMVYLQMNNLKPEDSAVYYCNAISPLWDEYDFWGPGTQVTVSS | 0.0594 | 22.6 | 22.8 | 45.7 | 0.0156 | 0.0244 | 0.00213 | – | – | – | –
Nb 57 (VHH, biotin on primary amines (EZ link NHS biotin) in the Eph receptor selectivity AlphaScreen only) VHH: QVQLQESGGGLVQPGGSLRLSCAASGFTFSSYYMYWVRQAPGKGLEWVSTINTGGGSTNYADSVKGRFIISRDNAKNTVYLQMNSLKPEDTAVYYCNAFAAGWGPDYWGQGTQVTVSS | 0.257 | 38.3 | 37.8 | 57.5 | 0.229 | 0.288 | 0.00133 | – | – | – | –
Nb 39 (VHH, biotin on primary amines (EZ link NHS biotin) in the Eph receptor selectivity AlphaScreen only) VHH: QVQLQESGGGLVQPGGSLKLSCAASGFTFSTYAMSWVRQAPGKGLEWVSRINSGGGYTWHADSVKGRFTISRDNARNTVYLQMNNLKPEDTAVYYCTNLNTGWRPEYWGQGTQVTVSS | 0.0607 | 30.1 | 23.6 | 56.6 | 0.0291 | 0.0158 | 0.00186 | – | – | – | –
Nb 34 (VHH) VHH: QVQLQESGGGLVQAGGSLRLSCAASGFTFSSYAMSWVRQAPGKGLEWVSGINTGGGSTYYADSVKGRFTISRDNAKNTLYLQMNSLKSEDTAVYYCVPRVGVLEGLTSFGSWGQGTQVTVSS | – | 18000 | 26900 | – | – | – | – | 0.168 | 0.0121 | 0.345 | 0.0226
Nb 60 (VHH, biotin on primary amines (EZ link NHS biotin) in the Eph receptor selectivity AlphaScreen only) VHH: QVQLQESGGGLVQPGGSLRLSCAASGFTFSRYWIYWVRQAPGKQRELVAAITRNGVTNYADSVKGRFTISTDDNKNTVYLQMNSLKSEDTAVYYCNAWGFLLGDIEDYWGQGTQVTVSS | 0.115 | 39.6 | 27.4 | 37 | 0.0488 | – | 0.00018 | – | – | – | –
Nb 22 (VHH, biotin on primary amines (EZ link NHS biotin) in the Eph receptor selectivity AlphaScreen only) VHH: QVQLQESGGGPVRAGESLRLSCTASGRAFSTYTMGWFRQAPGKERELVAVITPGGNTNYADSVKGRFTISRDDAKNTVYLQMNSLKPVDTAVYYCHVVLAVVGTGNEYDVWGQGTQVTVSS | 0.0143 | 47.1 | 104 | 54.1 | 0.0148 | 0.023 | 0.00255 | – | – | – | –
